Results reported in PMC5442325.

Key:
[1] = target: Deinococcus radiodurans RecA protein (wild type) (Deinococcus radiodurans) (UniProt P42443)
[2] = target: Deinococcus radiodurans RecA K83R mutant protein (Deinococcus radiodurans) (UniProt P42443)

- nicked circular duplex product of RecA-mediated DNA three-strand exchange under dilute conditions (0.4 μM RecA, 500 nM RecN, 45 min) [1]: > 3 fold
- steady-state RecN ATP hydrolysis rate, order of addition RecA K83R+DNA then RecN (reaction 5; 2 μM RecN, 2 μM RecA K83R, 50 μM duplex DNA, buffer N) [2]: 56.3 µM/min
- steady-state RecN ATP hydrolysis rate, order of addition RecN+DNA then RecA K83R (reaction 3; 2 μM RecN, 2 μM RecA K83R, 50 μM duplex DNA, buffer N) [2]: 53.4 µM/min
- steady-state RecN ATP hydrolysis rate, order of addition RecN+RecA K83R then DNA (reaction 4; 2 μM RecN, 2 μM RecA K83R, 50 μM duplex DNA, buffer N) [2]: 47.5 µM/min
B1: Deinococcus radiodurans RecN protein (wild type) (natural protein)
chain: MTRKARTPKAAPVPEAVAVVEPPPPDAAPTGPRLSRLEIRNLATITQLELELGGGFCAFTGETGAGKSIIVDALGLLLGGRANHDLIRSGEKELLVTGFWGDGDESEADSASRRLSSAGRGAARLSGEVVSVRELQEWAQGRLTIHWQHSAVSLLSPANQRGLLDRRVTKEAQAYAAAHAAWREAVSRLERLQASQRERARQIDLLAFQVQEISEVSPDPGEEEGLNTELSRLSNLHTIAQAAAGGVELLSDGDLNAAGLIGEAVRALNAGAKYDETVMQLQNELRAALESVQAIAGELRDVAEGSAADPEALDRVEARLSALSKLKNKYGPTLEDVVEFGAQAAEELAGLEEDERDAGSLQADVDALHAELLKVGQALDAAREREAEPLVDSLLAVIRELGMPHARMEFALSALAEPAAYGLSDVLLRFSANPGEELGPLSDVASGGELSRVMLAVSTVLGADTPSVVFDEVDAGIGGAAAIAVAEQLSRLADTRQVLVVTHLAQIAARAHHHYKVEKQVEDGRTVSHVRLLTGDERLEEIARMLSGNTSEAALEHARELLAG
